In publication PMC8143406:

Biological target: T1, GST-SXL (Sex-lethal) (UniProt P19339)
T1 sequence (P19339 whole entry, looked up): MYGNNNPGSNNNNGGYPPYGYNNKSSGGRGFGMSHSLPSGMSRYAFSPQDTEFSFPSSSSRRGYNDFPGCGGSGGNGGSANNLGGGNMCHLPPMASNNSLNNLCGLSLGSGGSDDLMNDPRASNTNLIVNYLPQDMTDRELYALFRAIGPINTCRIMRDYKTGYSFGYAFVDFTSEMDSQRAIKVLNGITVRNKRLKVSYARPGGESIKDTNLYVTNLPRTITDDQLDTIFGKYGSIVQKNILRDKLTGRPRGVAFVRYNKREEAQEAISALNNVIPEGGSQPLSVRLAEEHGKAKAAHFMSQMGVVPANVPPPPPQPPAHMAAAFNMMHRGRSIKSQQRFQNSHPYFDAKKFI
Assay: EMSA
Settings: EMSA as in cited refs 28 and 40, buffer, salt and pH not stated, GST-SXL at 166, 55 and 18 ng/ul, SELEX binding at 30 C for 30 min in 100 ul

[1] = within 2-3-fold of tra Py-tract

Row | Sequence | Kd | Kd [1]
1 | UUUUUGUUGUUUUUUUU [tra non-sex-specific polypyrimidine tract/3' splice site RNA] | 1 nM | –
2 | UUUUUUUUUCUUUUUUUUGU [Gs2 3' UTR SXL-binding site RNA (cDNA SELEX clone 10-15h_14)] | – | 1 nM
3 | UUUUUUUCUUUUUUUUCU [TnI 5' UTR SXL-binding site RNA (cDNA SELEX clone 10-15h_5)] | – | 1 nM
